# B1: CLCN6 (parent)
# chain: VGEIVGIITRHNLTYEFLQARLRQ
# B2: FCHSD1 (parent)
# chain: LQEPGVFSPTPPQQFQPAGTDQVC
# Variants of: B1
# Test: protein stability index of a GFP-peptide fusion (GPS, HEK-293T) (PSI 1-6); higher = more stable
# Conditions: c terminus: a fixed tail appended
# 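Further: lentivirally expressed fusions sorted by FACS into six bins by GFP to DsRed ratio, PSI derived from sequencing read proportions per bin multiplied by bin number.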
row,Variant,protein stability index
1,VGEIVGIITRHNLTYEFLQYRLRQ [A20Y],1.04
2,VGEIVGIITRHNLTYEFLQADLRQ [R21D],2.76
3,VGEIVGIITRHNLTYEFLQAGLRQ [R21G],1.89
4,VGEIVGIITRHNLTYEFLQAKLRQ [R21K],1.06
5,VGEIVGIITRHNLTYEFLQANLRQ [R21N],2.01
6,VGEIVGIITRHNLTYEFLQAQLRQ [R21Q],2.57
7,VGEIVGIITRHNLTYEFLQATLRQ [R21T],2.69
8,VGEIVGIITRHNLTYEFLQAVLRQ [R21V],1.67
9,VGEIVGIITRHNLTYEFLQAWLRQ [R21W],2.19
10,VGEIVGIITRHNLTYEFLQAYLRQ [R21Y],1.86
11,VGEIVGIITRHNLTYEFLQARDRQ [L22D],1.51
12,VGEIVGIITRHNLTYEFLQARERQ [L22E],1.04
13,VGEIVGIITRHNLTYEFLQARHRQ [L22H],1.93
14,VGEIVGIITRHNLTYEFLQARKRQ [L22K],1.93
15,VGEIVGIITRHNLTYEFLQARMRQ [L22M],2.37
16,VGEIVGIITRHNLTYEFLQARNRQ [L22N],1.15
17,VGEIVGIITRHNLTYEFLQARPRQ [L22P],1.53
18,VGEIVGIITRHNLTYEFLQARQRQ [L22Q],2.07
19,VGEIVGIITRHNLTYEFLQARRRQ [L22R],2.47
20,VGEIVGIITRHNLTYEFLQARSRQ [L22S],2.58

row,Variant,protein stability index
1,VGEIVGIITRHNLTYEFLQARVRQ [L22V],3.2
2,VGEIVGIITRHNLTYEFLQARWRQ [L22W],2.32
3,VGEIVGIITRHNLTYEFLQARYRQ [L22Y],2.44
4,VGEIVGIITRHNLTYEFLQARLEQ [R23E],1.2
5,VGEIVGIITRHNLTYEFLQARLFQ [R23F],2.58
6,VGEIVGIITRHNLTYEFLQARLHQ [R23H],1.73
7,VGEIVGIITRHNLTYEFLQARLPQ [R23P],1.86
8,VGEIVGIITRHNLTYEFLQARLQQ [R23Q],1.69
9,VGEIVGIITRHNLTYEFLQARLVQ [R23V],5.95
10,VGEIVGIITRHNLTYEFLQARLYQ [R23Y],4.23
11,VGEIVGIITRHNLTYEFLQARLRA [Q24A],4.07
12,VGEIVGIITRHNLTYEFLQARLRC [Q24C],3.27
13,VGEIVGIITRHNLTYEFLQARLRE [Q24E],3.09
14,VGEIVGIITRHNLTYEFLQARLRK [Q24K],1.61
15,VGEIVGIITRHNLTYEFLQARLRN [Q24N],2.8
16,VGEIVGIITRHNLTYEFLQARLRP [Q24P],2.15
17,VGEIVGIITRHNLTYEFLQARLRR [Q24R],1.88
18,VGEIVGIITRHNLTYEFLQARLRS [Q24S],2.53
19,VGEIVGIITRHNLTYEFLQARLRV [Q24V],2.87
20,VGEIVGIITRHNLTYEFLQARLRY [Q24Y],2.14

# Variants of: B2
# Test: as above
# Conditions: c terminus: a fixed tail appended
row,Variant,protein stability index
1,LQEPGVFRPTPPQQFQPAGTDQVC [S8R],4.57
2,LQEPGVFWPTPPQQFQPAGTDQVC [S8W],3.85
3,LQEPGVFSATPPQQFQPAGTDQVC [P9A],4.57
4,LQEPGVFSCTPPQQFQPAGTDQVC [P9C],4.26
5,LQEPGVFSDTPPQQFQPAGTDQVC [P9D],4.69
6,LQEPGVFSETPPQQFQPAGTDQVC [P9E],4.7
7,LQEPGVFSFTPPQQFQPAGTDQVC [P9F],4.14
8,LQEPGVFSGTPPQQFQPAGTDQVC [P9G],4.38
9,LQEPGVFSHTPPQQFQPAGTDQVC [P9H],4.29
10,LQEPGVFSITPPQQFQPAGTDQVC [P9I],4.03
11,LQEPGVFSKTPPQQFQPAGTDQVC [P9K],4.31
12,LQEPGVFSLTPPQQFQPAGTDQVC [P9L],4.56
13,LQEPGVFSMTPPQQFQPAGTDQVC [P9M],4.38
14,LQEPGVFSNTPPQQFQPAGTDQVC [P9N],4.04
15,LQEPGVFSQTPPQQFQPAGTDQVC [P9Q],4.65
16,LQEPGVFSRTPPQQFQPAGTDQVC [P9R],4.26
17,LQEPGVFSSTPPQQFQPAGTDQVC [P9S],4.14
18,LQEPGVFSTTPPQQFQPAGTDQVC [P9T],4.69
19,LQEPGVFSVTPPQQFQPAGTDQVC [P9V],4.3
20,LQEPGVFSWTPPQQFQPAGTDQVC [P9W],3.67
21,LQEPGVFSYTPPQQFQPAGTDQVC [P9Y],3.81
22,LQEPGVFSPAPPQQFQPAGTDQVC [T10A],4.56
23,LQEPGVFSPCPPQQFQPAGTDQVC [T10C],3.52
24,LQEPGVFSPDPPQQFQPAGTDQVC [T10D],4.67
25,LQEPGVFSPEPPQQFQPAGTDQVC [T10E],4.38
26,LQEPGVFSPFPPQQFQPAGTDQVC [T10F],3.5
27,LQEPGVFSPGPPQQFQPAGTDQVC [T10G],4.16

row,Variant,protein stability index
1,LQEPGVFSPHPPQQFQPAGTDQVC [T10H],4.17
2,LQEPGVFSPIPPQQFQPAGTDQVC [T10I],3.65
3,LQEPGVFSPKPPQQFQPAGTDQVC [T10K],4
4,LQEPGVFSPLPPQQFQPAGTDQVC [T10L],4.16
5,LQEPGVFSPMPPQQFQPAGTDQVC [T10M],3.82
6,LQEPGVFSPNPPQQFQPAGTDQVC [T10N],3.98
7,LQEPGVFSPQPPQQFQPAGTDQVC [T10Q],4.21
8,LQEPGVFSPRPPQQFQPAGTDQVC [T10R],3.54
9,LQEPGVFSPSPPQQFQPAGTDQVC [T10S],4.34
10,LQEPGVFSPVPPQQFQPAGTDQVC [T10V],3.96
11,LQEPGVFSPWPPQQFQPAGTDQVC [T10W],3.35
12,LQEPGVFSPYPPQQFQPAGTDQVC [T10Y],3.38
13,LQEPGVFSPTAPQQFQPAGTDQVC [P11A],4.41
14,LQEPGVFSPTCPQQFQPAGTDQVC [P11C],2.16
15,LQEPGVFSPTDPQQFQPAGTDQVC [P11D],4.5
16,LQEPGVFSPTEPQQFQPAGTDQVC [P11E],4.69
17,LQEPGVFSPTFPQQFQPAGTDQVC [P11F],3.49
18,LQEPGVFSPTGPQQFQPAGTDQVC [P11G],4.25
19,LQEPGVFSPTHPQQFQPAGTDQVC [P11H],4.09
20,LQEPGVFSPTIPQQFQPAGTDQVC [P11I],4.04
21,LQEPGVFSPTKPQQFQPAGTDQVC [P11K],3.62
22,LQEPGVFSPTLPQQFQPAGTDQVC [P11L],3.89
23,LQEPGVFSPTMPQQFQPAGTDQVC [P11M],4.17
24,LQEPGVFSPTNPQQFQPAGTDQVC [P11N],4.38
25,LQEPGVFSPTQPQQFQPAGTDQVC [P11Q],4.26
26,LQEPGVFSPTRPQQFQPAGTDQVC [P11R],3.9
27,LQEPGVFSPTSPQQFQPAGTDQVC [P11S],3.73
